{"source": "patent US20220412989A1", "about": "“COMPOSITIONS AND METHODS FOR DETECTING CELLS UNDERGOING FERROPTOSIS USING AN ANTIBODY” (THE TRUSTEES OF COLUMBIA UNIVERSITY IN THE CITY OF NEW YORK, priority 2020, published 2022)", "key": {"[1]": {"test_system": "HCC (Huh-7) mouse xenograft tumor tissue", "assay": "Staining of hepatocellular carcinoma mouse xenograft tumor tissue sections", "parameters": "species or system human", "settings": "50 mg/kg IKE once daily IP 2 days", "procedure": "(§1) Tumor tissues were fixed in 4% paraformaldehyde (PFA) for 24 h at 4° C. followed by washing with PBS three times. The tissues were perfused in 30% sucrose for 24 h at 4° C. for cryo-protection. The samples were embedded in OCT cryostat sectioning medium, and then moved directly into a cryostat. After equilibration of temperature, frozen tumor tissues were cut into 5 μm thick sections. Tissue sections were mounted on to poly-L-lysine coated slides by placing the cold sections onto warm slides. Slides were stored at −80° C. until staining. For staining, slides were warmed to room temperature followed by washing with PBS twice. A hydrophobic barrier pen was used to draw a circle on each slide. The slides were permeabilized with PBS with 0.4% Triton X-100 (PBT) twice before non-specific-binding blocking by incubating the sections with 10% goat serum (ThermoFisher 50197Z) for 30 min at room temperature. […] All images were captured on a Zeiss LSM 800 confocal microscope at Plan-Apochromat 63x/1.40 Oil DIC objective with constant laser intensity for all analyzed samples. The intensity above threshold of the fluorescent signal of the bound antibodies was analyzed using NIH ImageJ software (ImageJ, RRID:SCR_003070). Data were expressed as fold change comparing with the vehicle. […]"}, "[2]": {"test_system": "HT-1080 cells", "assay": "Flow cytometry antibody staining without permeabilization", "assay_type": "cell-based, human", "procedure": "HT-1080 cells were treated with DMSO or 1 μM RSL3 for 4 h. The cells were harvested by 0.25% Trypsin-EDTA (1×) (Invitrogen 25200-114) and washed with HBSS once. The cells were resuspended in 5% goat serum (ThermoFisher 50197Z) for 30 min on ice. The cells were incubated with mAb 3F3 FMA (1:500 dilution), Transferrin Receptor/CD71 Monoclonal Antibody, Clone: H68.4, Invitrogen (Thermo Fisher Scientific Cat #13-6800, RRID:AB_2533029, 1:250 dilution), CD71 (3B8 2A1) (Santa Cruz Biotechnology Cat #sc-32272, RRID:AB_627167, 1:50 dilution), Anti-Malondialdehyde antibody (Abcam Cat #ab6463, RRID:AB_305484, 1:400 dilution), Anti-4 Hydroxynonenal antibody (Abcam Cat #ab46544, RRID:AB_722493, 1:50 dilution), and mouse mAb 1F83 (1:100 dilution), which specifically recognizes the malondialdehyde (MDA)-lysine adduct 4-methyl-1,4-dihydropyridine-3,5-dicarbaldehyde (MDHDC) (Yamada et al., 2001) for 1 h on ice. The cells were washed with HBSS for 5 min three times by centrifugation. […] Fluorescence intensity was measured on the FL1 channel with gating to record live cells only (gate constructed from DMSO treatment group). A minimum of 10,000 cells were analyzed per condition. […]"}, "[3]": {"test_system": "B cell lymphoma (SU-DHL-6) mouse xenograft tumor tissue", "assay": "Staining of B cell lymphoma mouse xenograft tumor tissue sections", "parameters": "species or system human", "settings": "40 mg/kg IKE once daily IP 14 days", "procedure": "as §1"}, "[4]": {"target": "T1, TfR1 in mouse liver tissue (Mus musculus, UniProt Q62351)", "T1 construct": "from tissue; host or cells: normal mouse liver, frozen sections", "T1 sequence (Q62351 whole entry, the tested form may be a part)": "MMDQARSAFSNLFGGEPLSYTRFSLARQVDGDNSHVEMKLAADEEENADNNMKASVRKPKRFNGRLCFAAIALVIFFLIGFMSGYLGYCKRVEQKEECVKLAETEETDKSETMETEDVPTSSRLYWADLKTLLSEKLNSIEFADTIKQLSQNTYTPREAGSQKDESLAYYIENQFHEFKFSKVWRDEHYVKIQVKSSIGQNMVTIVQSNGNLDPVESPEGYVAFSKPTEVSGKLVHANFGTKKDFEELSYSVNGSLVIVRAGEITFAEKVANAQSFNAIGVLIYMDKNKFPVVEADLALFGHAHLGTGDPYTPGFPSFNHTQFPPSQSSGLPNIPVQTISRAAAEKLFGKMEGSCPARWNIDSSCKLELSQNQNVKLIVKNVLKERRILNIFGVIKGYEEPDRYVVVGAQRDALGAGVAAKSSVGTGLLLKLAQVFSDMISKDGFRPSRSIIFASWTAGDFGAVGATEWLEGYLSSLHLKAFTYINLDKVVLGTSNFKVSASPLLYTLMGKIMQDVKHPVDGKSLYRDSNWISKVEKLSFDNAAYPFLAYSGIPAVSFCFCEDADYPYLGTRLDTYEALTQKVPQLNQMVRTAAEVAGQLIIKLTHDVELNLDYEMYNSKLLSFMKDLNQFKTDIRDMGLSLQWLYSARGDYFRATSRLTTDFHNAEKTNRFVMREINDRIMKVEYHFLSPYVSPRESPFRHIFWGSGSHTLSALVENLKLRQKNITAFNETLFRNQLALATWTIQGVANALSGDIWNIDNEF", "assay": "Staining of normal mouse liver frozen tissue", "settings": "frozen tissue samples", "procedure": "FIGS. 12A-12B show 3F3 FMA staining in human Huntington's disease brains and mouse tissues. In FIG. 12A, human HD and control brain tissues were fixed in 4% PFA for 24 h, perfused in 30% sucrose for 24 h, and stained with DAPI (nuclei, blue) and 3F3 FMA (red). The expression level of TfR1 is low. There was no difference between HD and control groups. In FIG. 12B, mouse liver tissues and mouse GBM tissues were fixed and stained with DAPI (nuclei, blue) and 3F3 FMA (red). 3F3 FMA was able to recognize mouse TfR1."}}, "note": "Entries after “also recorded” stand apart in the source; their conditions may differ.", "data": [{"molecule": "3F3-FMA: murine monoclonal IgG1 raised against ferroptotic membrane fractions; antigen is human transferrin receptor protein 1 (TfR1) (antibody, V domains shown) VH: EVLLQQSGTELVRPGALVKLSCKASGFNIQDLYIHWVKQRPEQGLEWIGWIDPETDNTIYDPKFQGKASITADTSSNTAYLQLSSLTSEDTAMYYCSTGLLQWYFDVWGAGTAVTVSS VL: DIVMTQSPSSLAMSIGQKVTMRCKSSQSLLNSYNQKNCLAWYQQKPGQSPKLLLYFVSTRESGVPDRFIGSGSGTDFTLTISSVQAEDLADYFCQQHYSTPLTFGAGTKLELK", "values": [{"measurement": "staining intensity, IKE-treated vs vehicle samples", "setting": "[1]", "result": "increased intensities; also recorded: difference in intensities"}, {"measurement": "staining intensity in RSL3-treated cells by flow cytometry", "setting": "[2]; 1 μM RSL3, 4 h vs DMSO", "result": "increased intensities"}, {"measurement": "staining intensity in STS-induced apoptosis by flow cytometry", "setting": "[2]; 1 μM STS, 6 h vs DMSO", "result": "decreased intensity; also recorded: decreased intensities"}, {"measurement": "staining intensity, IKE-treated vs vehicle samples", "setting": "[3]", "result": "did not detect its antigen; also recorded: no difference"}, {"measurement": "staining signal in normal mouse liver", "setting": "[4]", "result": "robust signal"}]}]}
